In patent US20240174740A1 (EYEPOINT PHARMACEUTICALS, published 2024):

T1: poly-histidine tagged HPTP-β extracellular domain (ECD) 1/2 (human, UniProt P23467 23-730, limits assumed)
T1 construct: domain: extracellular domain (ECD) 1/2; Captured on the Biacore chip through goat anti-His antibody; also called His-tagged ligand HPTP-β 1/2 ECD; not shown: poly-histidine tag
T1 sequence (looked up): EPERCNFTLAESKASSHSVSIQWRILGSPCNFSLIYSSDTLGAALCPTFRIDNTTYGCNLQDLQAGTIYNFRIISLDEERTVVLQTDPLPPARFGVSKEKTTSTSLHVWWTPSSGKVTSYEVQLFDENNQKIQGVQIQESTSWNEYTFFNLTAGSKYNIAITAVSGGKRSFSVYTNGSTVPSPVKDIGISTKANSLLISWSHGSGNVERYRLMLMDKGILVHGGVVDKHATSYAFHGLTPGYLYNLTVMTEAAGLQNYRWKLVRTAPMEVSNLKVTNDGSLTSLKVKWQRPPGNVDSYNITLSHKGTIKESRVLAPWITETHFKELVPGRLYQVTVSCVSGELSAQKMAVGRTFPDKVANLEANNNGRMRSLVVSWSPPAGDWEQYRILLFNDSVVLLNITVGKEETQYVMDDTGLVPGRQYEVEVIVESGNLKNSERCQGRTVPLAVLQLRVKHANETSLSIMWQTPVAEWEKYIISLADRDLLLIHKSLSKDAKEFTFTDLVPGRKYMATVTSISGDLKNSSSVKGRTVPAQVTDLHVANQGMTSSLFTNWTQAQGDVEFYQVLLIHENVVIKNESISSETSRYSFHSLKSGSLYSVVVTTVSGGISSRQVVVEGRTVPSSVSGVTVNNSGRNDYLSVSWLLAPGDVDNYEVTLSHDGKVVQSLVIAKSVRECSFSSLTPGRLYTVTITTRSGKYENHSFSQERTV


What was measured:
[1] = molecular target: T1, poly-histidine tagged HPTP-β …; assay: Biacore SPR, full kinetics at 0-10 nM analyte; His-tagged HPTP-β 1/2 ECD captured by anti-His, antibody as analyte
Method: (§1) The assay buffer contained 10 mM HEPES buffer (pH 7.4), 150 mM NaCl, 3 mM EDTA, and 0.05% P20 (polyoxyethylenesorbitan). […] The conjugation buffer contained 10 mM sodium acetate buffer (pH 5). A flow rate of 5 μL/minute was used for capturing ligand. A flow rate of 30 μL/minute was used for kinetic analysis.
(§2) For analysis of binding of antibodies to HPTP-β, poly-histidine tagged HPTP-β extracellular domain (ECD) 1/2 was immobilized on a chip surface via anti-His antibodies. Goat anti-His antibody was first immobilized on the surface of the chip by direct immobilization using EDC/NHS (N-ethyl-N′-(3-dimethyl aminopropyl carbodiimide)/N-hydroxy succinamide) coupling chemistry on flow cell 2 of the CM5 (Carboxymethylated dextran coated) chip. Unoccupied sites were blocked with 1M ethanolamine. The His-tagged ligand HPTP-β 1/2 ECD was captured at a response unit (RU) of 50. The analyte (antibody) was flowed over the chip at a single analyte concentration at a time. The binding of analyte to the ligand was monitored in real time to obtain on (kₐ) and off (kd) rates. The equilibrium constant (KD) was calculated from the observed kₐ and kd.
(§3) Chi square analysis was carried out between the actual sensorgram and the sensorgram generated from the BNAnalysis software to confirm the accuracy of the analysis; values of 1-2 were considered accurate and below 1 highly accurate.

[2] = molecular target: T1, poly-histidine tagged HPTP-β …; assay: Biacore SPR, scouting at 10 nM analyte; His-tagged HPTP-β 1/2 ECD captured by anti-His, antibody as analyte
Method: as §1, §2
(§4) Chi square analysis was carried out between the actual sensorgram and the sensorgram generated from the BIAnalysis software to confirm the accuracy of the analysis; values of 1-2 were considered accurate and below 1 highly accurate.

VEGF [3] = molecular target: T2, VEGF (UniProt P15692-4 27-191, limits assumed); assay: Biacore SPR, full kinetics at 0-10 nM analyte; antibody immobilised on CM5 chip, VEGF as analyte
T2 construct: also called vascular endothelial growth factor
Method: as §1
(§5) For analysis of binding of the antibodies to VEGF, the antibodies were immobilized on the surface of the chip by direct immobilization using EDC/NHS coupling chemistry on flow cell 2 of the CM5 chip. Unoccupied sites were blocked with 1M ethanolamine. The analyte (VEGF) was flowed over the chip at a single analyte concentration at a time. The binding of analyte to the ligand was monitored in real time to obtain on (kₐ) and off (kd) rates. The equilibrium constant (KD) was calculated from the observed kₐ and kd.
as §3

VEGF [4] = molecular target: T2, VEGF; assay: Biacore SPR, scouting at 10 nM analyte; antibody immobilised on CM5 chip, VEGF as analyte
Method: as §1, §5, §4

[5] = molecular target: T1, poly-histidine tagged HPTP-β …; assay: Biacore SPR, scouting at 10 nM analyte; His-tagged HPTP-β 1/2 ECD captured by anti-His, antibody as analyte; scouting experiment at a single ligand concentration (Table 46), not full kinetics
Excerpt: as §2, §4

T2 sequence (P15692 other isoform, or with tags, fused parts or gaps limits assumed): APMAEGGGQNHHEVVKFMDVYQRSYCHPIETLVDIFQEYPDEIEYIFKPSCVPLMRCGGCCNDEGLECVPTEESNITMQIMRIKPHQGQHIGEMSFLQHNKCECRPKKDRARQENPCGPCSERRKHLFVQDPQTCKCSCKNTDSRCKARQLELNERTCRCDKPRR

| Binder | Kd [1] [pM] | Kd [2] [pM] | Kd (VEGF [3]) [pM] | Kd (VEGF [4]) [pM] | Kd [5] [pM] |
| --- | --- | --- | --- | --- | --- |
| HC2-AFL:LC1 (bispecific antibody, human IgG4 S228P, kappa) heavy: not shown light: DVVMTQSPSFLSASVGDRVTITCKASQHVGTAVAWYQQRPGKAPKLLIYWASTRHTGVPSRFSGSGSGTEFTLTISSLQPEDFATYFCQQYSSYPFTFGGGTKLEIKRTVAAPSVFIFPPSDEQLKSGTASVVCLLNNFYPREAKVQWKVDNALQSGNSQESVTEQDSKDSTYSLSSTLTLSKADYEKHKVYACEVTHQGLSSPVTKSFNRGEC | 219 | 320 | 46.3 | 350 | – |
| HC2-RAN:LC1 (bispecific antibody, human IgG4 S228P, kappa, also called HC2-RBZ:LC1; tetravalent bispecific antibody with ranibizumab-derived scFv on the heavy chain C-termini) heavy: not shown light: DVVMTQSPSFLSASVGDRVTITCKASQHVGTAVAWYQQRPGKAPKLLIYWASTRHTGVPSRFSGSGSGTEFTLTISSLQPEDFATYFCQQYSSYPFTFGGGTKLEIKRTVAAPSVFIFPPSDEQLKSGTASVVCLLNNFYPREAKVQWKVDNALQSGNSQESVTEQDSKDSTYSLSSTLTLSKADYEKHKVYACEVTHQGLSSPVTKSFNRGEC | – | – | – | – | 0.586 |
| HC2-ABI:LC1 (bispecific antibody, human IgG4 S228P, kappa) heavy: not shown light: DVVMTQSPSFLSASVGDRVTITCKASQHVGTAVAWYQQRPGKAPKLLIYWASTRHTGVPSRFSGSGSGTEFTLTISSLQPEDFATYFCQQYSSYPFTFGGGTKLEIKRTVAAPSVFIFPPSDEQLKSGTASVVCLLNNFYPREAKVQWKVDNALQSGNSQESVTEQDSKDSTYSLSSTLTLSKADYEKHKVYACEVTHQGLSSPVTKSFNRGEC | 1.03 | 122 | 0.04 | 0.11 | – |
| HC2-BRO:LC1 (bispecific antibody, human IgG4 S228P, kappa) heavy: not shown light: DVVMTQSPSFLSASVGDRVTITCKASQHVGTAVAWYQQRPGKAPKLLIYWASTRHTGVPSRFSGSGSGTEFTLTISSLQPEDFATYFCQQYSSYPFTFGGGTKLEIKRTVAAPSVFIFPPSDEQLKSGTASVVCLLNNFYPREAKVQWKVDNALQSGNSQESVTEQDSKDSTYSLSSTLTLSKADYEKHKVYACEVTHQGLSSPVTKSFNRGEC | 154 | 325 | 0.218 | 0.112 | – |
| HC2:LC1-AFL (bispecific antibody, human IgG4 S228P, kappa) heavy: not shown light: DVVMTQSPSFLSASVGDRVTITCKASQHVGTAVAWYQQRPGKAPKLLIYWASTRHTGVPSRFSGSGSGTEFTLTISSLQPEDFATYFCQQYSSYPFTFGGGTKLEIKRTVAAPSVFIFPPSDEQLKSGTASVVCLLNNFYPREAKVQWKVDNALQSGNSQESVTEQDSKDSTYSLSSTLTLSKADYEKHKVYACEVTHQGLSSPVTKSFNRGECGGGGSSDTGRPFVEMYSEIPEIIHMTEGRELVIPCRVTSPNITVTLKKFPLDTLIPDGKRIIWDSRKGFIISNATYKEIGLLTCEATVNGHLYKTNYLTHRQTNTIIDVVLSPSHGIELSVGEKLVLNCTARTELNVGIDFNWEYPSSKHQHKKLVNRDLKTQSGSEMKKFLSTLTIDGVTRSDQGLYTCAASSGLMTKKNSTFVRVHEK | – | 467 | – | 825 | – |
| HC2-AFL:LC1-AFL (bispecific antibody, human IgG4 S228P, kappa) heavy: not shown light: DVVMTQSPSFLSASVGDRVTITCKASQHVGTAVAWYQQRPGKAPKLLIYWASTRHTGVPSRFSGSGSGTEFTLTISSLQPEDFATYFCQQYSSYPFTFGGGTKLEIKRTVAAPSVFIFPPSDEQLKSGTASVVCLLNNFYPREAKVQWKVDNALQSGNSQESVTEQDSKDSTYSLSSTLTLSKADYEKHKVYACEVTHQGLSSPVTKSFNRGECGGGGSSDTGRPFVEMYSEIPEIIHMTEGRELVIPCRVTSPNITVTLKKFPLDTLIPDGKRIIWDSRKGFIISNATYKEIGLLTCEATVNGHLYKTNYLTHRQTNTIIDVVLSPSHGIELSVGEKLVLNCTARTELNVGIDFNWEYPSSKHQHKKLVNRDLKTQSGSEMKKFLSTLTIDGVTRSDQGLYTCAASSGLMTKKNSTFVRVHEK | – | 69.4 | – | 557 | – |
| HC2:LC1-BRO (bispecific antibody, human IgG4 S228P, kappa) heavy: not shown light: DVVMTQSPSFLSASVGDRVTITCKASQHVGTAVAWYQQRPGKAPKLLIYWASTRHTGVPSRFSGSGSGTEFTLTISSLQPEDFATYFCQQYSSYPFTFGGGTKLEIKRTVAAPSVFIFPPSDEQLKSGTASVVCLLNNFYPREAKVQWKVDNALQSGNSQESVTEQDSKDSTYSLSSTLTLSKADYEKHKVYACEVTHQGLSSPVTKSFNRGECGGGGSEIVMTQSPSTLSASVGDRVIITCQASEIIHSWLAWYQQKPGKAPKLLIYLASTLASGVPSRFSGSGSGAEFTLTISSLQPDDFATYYCQNVYLASTNGANFGQGTKLTVLGGGGGSGGGGSGGGGSGGGGSEVQLVESGGGLVQPGGSLRLSCTASGFSLTDYYYMTWVRQAPGKGLEWVGFIDPDDDPYYATWAKGRFTISRDNSKNTLYLQMNSLRAEDTAVYYCAGGDHNSGWGLDIWGQGTLVTVSS | – | 309 | – | 0.0351 | – |
| HC2-BRO:LC1-BRO (bispecific antibody, human IgG4 S228P, kappa) heavy: not shown light: DVVMTQSPSFLSASVGDRVTITCKASQHVGTAVAWYQQRPGKAPKLLIYWASTRHTGVPSRFSGSGSGTEFTLTISSLQPEDFATYFCQQYSSYPFTFGGGTKLEIKRTVAAPSVFIFPPSDEQLKSGTASVVCLLNNFYPREAKVQWKVDNALQSGNSQESVTEQDSKDSTYSLSSTLTLSKADYEKHKVYACEVTHQGLSSPVTKSFNRGECGGGGSEIVMTQSPSTLSASVGDRVIITCQASEIIHSWLAWYQQKPGKAPKLLIYLASTLASGVPSRFSGSGSGAEFTLTISSLQPDDFATYYCQNVYLASTNGANFGQGTKLTVLGGGGGSGGGGSGGGGSGGGGSEVQLVESGGGLVQPGGSLRLSCTASGFSLTDYYYMTWVRQAPGKGLEWVGFIDPDDDPYYATWAKGRFTISRDNSKNTLYLQMNSLRAEDTAVYYCAGGDHNSGWGLDIWGQGTLVTVSS | – | 3.5 | – | 1.79 | – |
| HC2:LC1-ABI (bispecific antibody, human IgG4 S228P, kappa, The expressed entry minus its signal peptide is used here) heavy: not shown light: DVVMTQSPSFLSASVGDRVTITCKASQHVGTAVAWYQQRPGKAPKLLIYWASTRHTGVPSRFSGSGSGTEFTLTISSLQPEDFATYFCQQYSSYPFTFGGGTKLEIKRTVAAPSVFIFPPSDEQLKSGTASVVCLLNNFYPREAKVQWKVDNALQSGNSQESVTEQDSKDSTYSLSSTLTLSKADYEKHKVYACEVTHQGLSSPVTKSFNRGECGGGGSDLDKKLLEAARAGQDDEVRILMANGADVNARDSTGWTPLHLAAPWGHPEIVEVLLKNGADVNAADFQGWTPLHLAAAVGHLEIVEVLLKYGADVNAQDKFGKTAFDISIDNGNEDLAEILQKAA | – | 61 | – | 519 | – |
| HC2-ABI:LC1-ABI (bispecific antibody, human IgG4 S228P, kappa) heavy: not shown light: DVVMTQSPSFLSASVGDRVTITCKASQHVGTAVAWYQQRPGKAPKLLIYWASTRHTGVPSRFSGSGSGTEFTLTISSLQPEDFATYFCQQYSSYPFTFGGGTKLEIKRTVAAPSVFIFPPSDEQLKSGTASVVCLLNNFYPREAKVQWKVDNALQSGNSQESVTEQDSKDSTYSLSSTLTLSKADYEKHKVYACEVTHQGLSSPVTKSFNRGECGGGGSDLDKKLLEAARAGQDDEVRILMANGADVNARDSTGWTPLHLAAPWGHPEIVEVLLKNGADVNAADFQGWTPLHLAAAVGHLEIVEVLLKYGADVNAQDKFGKTAFDISIDNGNEDLAEILQKAA | – | 205 | – | 680 | – |
